Measured values taken from patent US20200277396A1.

What was measured:
[1] = molecular target: human CD83, cell surface, on lymphoma cells (human) (UniProt Q01151); assay: flow cytometry, HB15a-FITC on HDLM2 cells, gate placed right of the grey isotype control histogram
[2] = molecular target: human CD83, cell surface, on lymphoma cells (human) (UniProt Q01151); assay: flow cytometry, HB15a-FITC on L428 cells, gate placed right of the grey isotype control histogram
[3] = molecular target: human CD83, cell surface, on lymphoma cells (human) (UniProt Q01151); assay: flow cytometry, HB15a-FITC on KM-H2 cells, gate placed right of the grey isotype control histogram
[4] = molecular target: human CD83, cell surface, on lymphoma cells (human) (UniProt Q01151); assay: flow cytometry, HB15e-FITC on HDLM2 cells, gate placed right of the grey isotype control histogram
[5] = molecular target: human CD83, cell surface, on lymphoma cells (human) (UniProt Q01151); assay: flow cytometry, HB15e-FITC on L428 cells, gate placed right of the grey isotype control histogram
[6] = molecular target: human CD83, cell surface, on lymphoma cells (human) (UniProt Q01151); assay: flow cytometry, HB15e-FITC on KM-H2 cells, gate placed right of the grey isotype control histogram

Chain of UniProt Q01151 (Q01151 20-205): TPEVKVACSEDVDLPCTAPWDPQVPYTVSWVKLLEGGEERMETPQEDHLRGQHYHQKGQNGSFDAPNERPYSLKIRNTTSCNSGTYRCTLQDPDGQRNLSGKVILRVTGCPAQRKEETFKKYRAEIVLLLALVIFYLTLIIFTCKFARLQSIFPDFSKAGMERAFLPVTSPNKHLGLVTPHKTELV

Row | Substance | positive gate (percent of cells in the gate) [1] | positive gate (percent of cells in the gate) [2] | positive gate (percent of cells in the gate) [3] | positive gate (percent of cells in the gate) [4] | positive gate (percent of cells in the gate) [5] | positive gate (percent of cells in the gate) [6]
1 | HB15a, mouse anti-human CD83 monoclonal antibody (Beckman and Coulter) | 14.7 | 27.2 | 99.5 | – | – | –
2 | HB15e, mouse anti-human CD83 monoclonal antibody (BD Biosciences) | – | – | – | 32.5 | 60 | 99
